Legend:
ABCG2 [1] = molecular target: T1, ABCG2 (Homo sapiens, UniProt Q9UNQ0); format: cell-based
T1 construct: expressed in transfected cells
T1 sequence (Q9UNQ0 1-655): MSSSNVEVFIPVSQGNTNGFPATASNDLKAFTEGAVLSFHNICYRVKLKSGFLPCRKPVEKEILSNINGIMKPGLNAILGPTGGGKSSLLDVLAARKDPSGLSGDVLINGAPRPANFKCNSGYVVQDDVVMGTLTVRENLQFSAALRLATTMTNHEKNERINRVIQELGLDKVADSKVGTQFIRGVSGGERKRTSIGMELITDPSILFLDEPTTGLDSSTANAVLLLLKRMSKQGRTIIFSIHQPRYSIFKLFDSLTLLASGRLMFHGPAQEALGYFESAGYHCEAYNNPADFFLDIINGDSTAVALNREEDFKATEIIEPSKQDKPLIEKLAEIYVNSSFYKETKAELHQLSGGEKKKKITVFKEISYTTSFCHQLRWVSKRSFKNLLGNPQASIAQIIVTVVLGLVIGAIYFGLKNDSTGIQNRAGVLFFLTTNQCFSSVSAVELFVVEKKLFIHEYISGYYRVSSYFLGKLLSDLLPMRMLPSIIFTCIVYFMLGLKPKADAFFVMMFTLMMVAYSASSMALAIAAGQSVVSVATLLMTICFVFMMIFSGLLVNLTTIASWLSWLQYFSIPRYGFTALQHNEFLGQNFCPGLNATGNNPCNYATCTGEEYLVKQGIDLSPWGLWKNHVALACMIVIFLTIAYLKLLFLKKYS
Procedure: 293T_ABCG2_OX cells were washed several times and aliquoted into 96-well plates as 50 μl aliquots/well at a cell density of 2×10e6 cells per ml in phenol red-free DMEM. Cells were mixed with 50 μl antibodies or the small molecule inhibitors of ABCG2:-fumitremorgin C (FTC), or its tetracyclic analogue K0143, with a final concentration of 1 μM. Cells were then incubated in the presence of 2.5 μM Mitoxantrone 1 h at 37° C. The cells were subsequently washed twice and finally resuspended in […] PBS. Mitoxantrone fluorescence was measured using excitation at 635 nm and emission at 647 nm. Protocols was measuring efflux blockade are found in Szabo E, et al., PLoS One. 2018 Jan. 17; 13(1):e0190629; Deeken J F, et al., Mol Pharmacol. 2009 November; 76(5):946-56).

ABCG2 [2] = molecular target: T1, ABCG2; assay: Flow cytometry binding to 293T cells overexpressing human ABCG2 (293T_ABCG2_OX); set-up: key to Binding by FACS: binding=“+”; non-significant binding=“−”
Procedure: (§1) Cell Binding Assays. Antibody binding to cells was evaluated by flow cytometry. 293T cells stably transfected to express human or cynomolgus ABCG2 (293T_ABCG2_OX) were washed once in flow cytometry buffer (PBS+2% FBS+0.02% sodium azide), resuspended at 2×10^6 cells/mL in flow cytometry buffer, and dispensed into 96-well microtiter plates at 0.1 mL/well. Recombinant antibodies were added to cells at 5 ug/mL for initial binding confirmation, or serially diluted from 100 ug/mL in flow cytometry buffer. After incubating cells on ice for 30 min, cells were washed twice with flow cytometry buffer. Bound antibody was detected with PE-labeled F(ab′)2 fragment goat anti-human IgG (Jackson ImmunoResearch) and evaluated on an Attune NxT flow cytometer. EC50 is calculated to be the concentration of antibody that gives half maximal response.

cynomolgus ABCG2 = assay: Flow cytometry binding to 293T cells overexpressing cynomolgus ABCG2; set-up: key to Cynomolgus ABCG2 binding: binding=“+”; non-significant binding=“−”
Sequence of cynomolgus ABCG2 (as listed by the source): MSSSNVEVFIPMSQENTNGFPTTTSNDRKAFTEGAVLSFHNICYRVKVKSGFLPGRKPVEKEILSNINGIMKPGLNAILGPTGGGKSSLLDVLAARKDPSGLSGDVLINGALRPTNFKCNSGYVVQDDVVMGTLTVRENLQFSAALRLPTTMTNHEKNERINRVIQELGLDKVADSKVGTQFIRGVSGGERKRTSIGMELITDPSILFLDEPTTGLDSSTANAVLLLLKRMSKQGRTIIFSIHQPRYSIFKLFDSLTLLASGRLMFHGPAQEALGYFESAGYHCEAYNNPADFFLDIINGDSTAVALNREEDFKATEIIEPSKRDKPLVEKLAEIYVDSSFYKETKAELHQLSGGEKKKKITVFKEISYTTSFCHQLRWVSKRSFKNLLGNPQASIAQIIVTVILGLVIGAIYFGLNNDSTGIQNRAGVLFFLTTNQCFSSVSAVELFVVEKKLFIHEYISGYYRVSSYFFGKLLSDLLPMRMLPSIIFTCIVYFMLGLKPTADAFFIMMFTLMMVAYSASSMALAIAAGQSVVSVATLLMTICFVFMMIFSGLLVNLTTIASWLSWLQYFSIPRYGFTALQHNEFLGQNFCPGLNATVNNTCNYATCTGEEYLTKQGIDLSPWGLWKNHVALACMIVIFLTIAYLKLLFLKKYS
Procedure: as §1

293T_ABCG2_OX cells = format: cell-based, human; details: cell killing by topotecan on 293T_ABCG2_OX cells; viability relative to IgG control
Procedure: Cytotoxicity Assays. The effect of antibodies on topotecan cytotoxicity was evaluated on 293T_ABCG2_OX cells, 293T cells stably transfected to express ABCG2. Cells were plated in 0.05 mL of Assay Media (DMEM+10% FBS) at 5000 cells/well in white, flat bottom 96-well tissue culture plates. Topotecan was prepared at 2× final assay concentration by serial dilution from 200 uM in assay media containing test antibodies or control antibodies at 100 ug/mL (2× final concentration), or Fumitremorgin C, a small molecule ABCG2 inhibitor at 20 uM (2× final concentration). An equivalent volume (0.05 mL) of the topotecan/antibody mixture was added to the 293T_ABCG2_OX cells in 96-well plates. The plates were then incubated at 37° C., in 5% CO2. After 72-96 hr plates were equilibrated to room temperature and cell viability assessed using Promega® CellTiter-Glo® Luminescent Cell Viability Assay according to the manufacturer's recommended protocol. Luminescence was measured on a Molecular Devices® FlexStation® 3 Multi-Mode Microplate Reader and data analyzed using GraphPad Prism 8.0 software. Half maximal inhibitory concentration (1050) is the concentration of drug (topotecan or other chemotherapy cytotoxic agent) where the response (cell growth) is reduced by 50%.

What does the source list for “5D3: anti-Human ABCG2 Antibody (Clone 5D3) from R&D Systems [Antibody 5D3, reference compound]”?
Block Efflux (ABCG2 [1]): +; Binding by FACS (ABCG2 [2]; 293T_ABCG2_OX cells): +; binding to human ABCG2 expressed on 3T3 and C6 cell lines (ABCG2 [2]; FIG. 1B, stably transfected cells): binds; Cynomolgus ABCG2 binding (cynomolgus ABCG2): +; binding to cynomolgus ABCG2 (cG2) expressed by 3T3 cells (cynomolgus ABCG2; FIG. 1B, 3T3 cells stably transfected with cABCG2): binds; Killing (293T_ABCG2_OX cells): ++ (viability ≥10% and <30% of IgG control)
